Positions count from the first letter of the chain named. Each block holds one binder with its values, some of them ahead of it.
What was measured:
Test in all cases: co-IP
[1] = target: T1, HA-tagged WT R-ras (UniProt P10301 1-218)
T1 sequence: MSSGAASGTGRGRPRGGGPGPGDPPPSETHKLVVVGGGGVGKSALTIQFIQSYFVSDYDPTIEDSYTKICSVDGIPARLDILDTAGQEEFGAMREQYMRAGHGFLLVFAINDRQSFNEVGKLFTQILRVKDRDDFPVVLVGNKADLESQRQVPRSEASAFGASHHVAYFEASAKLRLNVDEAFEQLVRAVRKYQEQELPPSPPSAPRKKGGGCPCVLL

[2] = target: T2, HA-tagged constitutively active R-ras (G38V) (UniProt P10301 1-218, G38V)
T2 sequence: T1 sequence with G38V

[3] = target: T3, HA-tagged CA R-ras mutant (P202A; P203A) (UniProt P10301 1-218, G38V | P202A | P203A)
T3 sequence: T1 sequence with G38V, P202A, P203A

[4] = target: HA-tagged FliI LRR
[5] = target: T4, HA-tagged full-length FliI (UniProt Q9JJ28 1-1271)
T4 sequence: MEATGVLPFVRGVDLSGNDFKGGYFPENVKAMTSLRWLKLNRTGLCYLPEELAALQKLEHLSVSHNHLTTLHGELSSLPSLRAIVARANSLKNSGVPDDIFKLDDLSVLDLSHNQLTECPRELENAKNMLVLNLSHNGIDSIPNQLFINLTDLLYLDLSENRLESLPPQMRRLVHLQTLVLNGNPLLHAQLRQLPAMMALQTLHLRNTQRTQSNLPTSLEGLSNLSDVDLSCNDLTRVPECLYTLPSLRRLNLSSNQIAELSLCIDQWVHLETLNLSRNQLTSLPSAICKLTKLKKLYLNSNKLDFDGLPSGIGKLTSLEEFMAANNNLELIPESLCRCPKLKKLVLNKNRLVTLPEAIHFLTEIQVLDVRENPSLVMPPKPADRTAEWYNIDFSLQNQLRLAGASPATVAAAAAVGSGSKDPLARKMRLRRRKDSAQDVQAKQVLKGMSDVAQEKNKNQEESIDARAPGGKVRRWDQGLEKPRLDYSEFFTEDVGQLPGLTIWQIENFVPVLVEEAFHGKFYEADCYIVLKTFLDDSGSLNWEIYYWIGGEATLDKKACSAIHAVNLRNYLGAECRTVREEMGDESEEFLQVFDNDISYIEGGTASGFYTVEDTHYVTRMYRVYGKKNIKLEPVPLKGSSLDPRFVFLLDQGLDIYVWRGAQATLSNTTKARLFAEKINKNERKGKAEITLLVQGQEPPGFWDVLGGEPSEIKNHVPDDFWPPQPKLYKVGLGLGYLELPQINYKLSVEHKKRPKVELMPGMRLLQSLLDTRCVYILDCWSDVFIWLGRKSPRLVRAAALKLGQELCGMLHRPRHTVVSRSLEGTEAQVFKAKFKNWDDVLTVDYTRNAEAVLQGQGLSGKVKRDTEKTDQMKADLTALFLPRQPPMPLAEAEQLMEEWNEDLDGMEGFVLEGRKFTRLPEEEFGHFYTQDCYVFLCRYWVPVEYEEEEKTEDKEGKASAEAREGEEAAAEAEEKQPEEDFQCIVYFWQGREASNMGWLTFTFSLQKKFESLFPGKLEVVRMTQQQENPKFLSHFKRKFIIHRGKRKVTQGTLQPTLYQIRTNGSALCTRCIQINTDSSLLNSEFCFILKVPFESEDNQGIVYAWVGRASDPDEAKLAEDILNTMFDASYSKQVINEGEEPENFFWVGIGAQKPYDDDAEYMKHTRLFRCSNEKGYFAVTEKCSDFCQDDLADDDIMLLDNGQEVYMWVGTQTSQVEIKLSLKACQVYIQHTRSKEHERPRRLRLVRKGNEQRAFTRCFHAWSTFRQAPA

fold association compared with DN R-ras [1]: 2.5 fold
fold association compared with DN R-ras [2]: 3.5 fold
fold reduction of association compared with CA R-ras [3]: 4 fold
B1: Flightless I (FliI), endogenous (natural protein)
chain: T4 sequence

fold association compared with FliI GLD [4]: 4 fold
fold association compared with FliI GLD [5]: 4.6 fold
B2: R-ras, endogenous (natural protein)
chain: MSSGAASGTGRGRPRGGGPGPRDPPPGETHKLVVVGGGGVGKSALTIQFIQSYFVSDYDPTIEDSYTKICTVDGIPARLDILDTAGQEEFGAMREQYMRAGNGFLLVFAINDRQSFNEVGKLFTQILRVKDRDDFPIVLVGNKADLENQRQVLRSEASSFSASHHMTYFEASAKLRLNVDEAFEQLVRAVRKYQEQELPPSPPSAPRKKDGGCPCVLL

Reference: publication PMC6233052 (Molecular Biology of the Cell, 2018)
